{
  "source": "paper PMC8457657",
  "target": "pseudotyped SARS-CoV-2 (spike on lentivirus), active (SARS-CoV-2) (UniProt P0DTC2)",
  "assay": "ELONA",
  "conditions": "pH 7.2, pH 7.4, room temperature ([…], MST 10 min)",
  "data": [
    {"sequence": "CCCGACCAGCCACCATCAGCAACTCTTCCGCGTCCATCCCTGCTG [SARS2-AR10]", "values": [
      {"measurement": "Kd", "value": 79, "unit": "nM"}
    ]}
  ]
}
